Values belong to the binder of their own block, whether it stands above or below them. Ends that are not written are not given here.
Legend:
[1] = target: T1, hVEGF (PeproTech) (human, UniProt P15692-4 27-191, limits assumed); experiment: immunofluorescence against hVEGF on peptide-functionalized PCL films, 1 µg/mL hVEGF
T1 construct: Commercial growth factor; also called ihVEGF; shVEGF

[2] = target: T1, hVEGF (PeproTech); experiment: immunofluorescence against hVEGF on peptide-functionalized POLY-TAPE, 1 µg/mL hVEGF
[3] = target: T1, hVEGF (PeproTech); experiment: immunofluorescence against hVEGF on peptide-functionalized Chondro-Gide, 1 µg/mL hVEGF
[4] = target: T1, hVEGF (PeproTech); experiment: immunofluorescence against hVEGF on peptide-functionalized Collagen Meniscus Implant, 1 µg/mL hVEGF
[5] = target: hBMP-2 (PeproTech) (human, UniProt P12643 283-396); experiment: cell-based or functional assay
Sequence of hBMP-2 (PeproTech) (P12643 283-396 limits assumed): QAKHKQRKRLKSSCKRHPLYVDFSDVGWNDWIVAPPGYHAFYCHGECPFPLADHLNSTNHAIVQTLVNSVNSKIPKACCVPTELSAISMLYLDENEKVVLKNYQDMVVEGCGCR

[6] = target: T2, endogenous BMP-2 (rat) (rat, UniProt P49001 280-393, limits assumed); experiment: immunofluorescence against BMP-2 of PCL films implanted subcutaneously in rats for 7 days
T2 construct: also called BMP-2 released during inflammation
T2 sequence (P49001 280-393 limits assumed): as the sequence (P12643 283-396 limits assumed) above

[7] = target: hTGFB1 (Peprotech) (human, UniProt P01137 279-390); experiment: cell-based or functional assay
Sequence of hTGFB1 (Peprotech) (P01137 279-390 limits assumed): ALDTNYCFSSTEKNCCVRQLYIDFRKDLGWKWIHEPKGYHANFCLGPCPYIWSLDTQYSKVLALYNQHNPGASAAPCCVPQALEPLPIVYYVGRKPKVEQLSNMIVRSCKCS

T1 sequence (P15692 other isoform, or with tags, fused parts or gaps limits assumed): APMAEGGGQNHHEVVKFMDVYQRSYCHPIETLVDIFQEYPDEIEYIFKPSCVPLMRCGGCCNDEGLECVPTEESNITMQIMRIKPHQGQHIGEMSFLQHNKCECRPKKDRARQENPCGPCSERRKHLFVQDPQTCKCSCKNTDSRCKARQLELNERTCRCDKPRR

fluorescence intensity, fold over non-functionalized films incubated with hVEGF [1]: 7 fold | fluorescence signal, fold over native POLY-TAPE with hVEGF [2]: 2.3 fold | fluorescence signal, fold over oxygen plasma treated POLY-TAPE with hVEGF [2]: 1.5 fold | fluorescence signal, fold over Chondro-Gide functionalized with NHS/EDC and incubated with hVEGF [3]: 2.2 fold | fluorescence signal, fold (reference taken as native CMI incubated with hVEGF) [4]: 3.3 fold
B1: VEGF-binding peptide KGSWWAPFH (peptide)
peptide: Ac-KGSWWAPFH
modifications: not fully specified (residue 1); also: lysine side chain covalently coupled to film or device
notes: also called SWWAPFH with an extra glycine and lysine at the N-termini

ALP produced by C2C12 after 7 days, fold over controls; functionalized films incubated with 5.0 µg hBMP-2 [5]: 12.7 fold | ALP production by C2C12, ratio to hBMP-2 nonspecifically adsorbed on native films [5]: 2.4 fold | luciferase of BMP-2 reporter cell line (C2C12 Luc), fold increase; films incubated with 500 ng hBMP-2 [5]: 5.3 fold | luciferase of BMP-2 reporter cell line (C2C12 Luc, ID1 promoter), normalized to films without hBMP-2; films incubated with 500 ng hBMP-2 [5]: 10.4 fold (normalized luciferase) | binding result [6]: binds
B2: BMP-2-binding peptide KGYPVHPST (peptide)
peptide: Ac-KGYPVHPST
modifications: not fully specified (residue 1); also: lysine side chain covalently coupled to film or tape
notes: also called YPVHPST with an extra glycine and lysine at the N-termini

luciferase activity of TGFB1 reporter cell line (MLEC, PAI-1 promoter), fold over same films without hTGFB1 incubation [7]: 3 fold
B3: scrambled peptide KGHNLGLPS (peptide)
peptide: Ac-KGHNLGLPS-NH2
modifications: not fully specified (residue 1); also: lysine side chain covalently coupled to PCL film

luciferase activity of TGFB1 reporter cell line (MLEC, PAI-1 promoter), fold over same films without hTGFB1 incubation [7]: 9 fold
B4: TGFB1 binding peptide KGLPLGNSH (peptide)
peptide: Ac-KGLPLGNSH-NH2
modifications: not fully specified (residue 1); also: lysine side chain covalently coupled to PCL film

Reference: patent US20200095341A1 (UNIVERSITEIT TWENTE, published 2020)
